Assay results taken from patent US20170044259A1 (published 2017).

Tests used:
[1] = molecular target: T1, human PD-1-Fc (R and D systems, Minneapolis, Minn.) (human, UniProt Q15116 25-167); assay: inhibition ELISA; hPDL-2 Fc blockade
[2] = molecular target: human PD-1-His (R & D systems, Minneapolis, Minn.) (human, UniProt Q15116 25-167); assay: BLI
[3] = molecular target: T1, human PD-1-Fc (R and D systems, …); assay: inhibition ELISA; hPDL-1 Fc blockade
[4] = molecular target: T1, human PD-1-Fc (R and D systems, …); assay: inhibition ELISA; hPDL-1 Fc blockade; remark: listed apart in the source
[5] = molecular target: T1, human PD-1-Fc (R and D systems, …); assay: inhibition ELISA; hPDL-2 Fc blockade; remark: listed apart in the source
[6] = molecular target: T1, human PD-1-Fc (R and D systems, …); assay: inhibition ELISA; hPDL-2 Fc blockade; remark: listed apart in the source
[7] = molecular target: T1, human PD-1-Fc (R and D systems, …); assay: inhibition ELISA; hPDL-1 Fc blockade; remark: listed apart in the source
[8] = molecular target: T1, human PD-1-Fc (R and D systems, …); assay: ELISA; lower right panel
[9] = molecular target: T1, human PD-1-Fc (R and D systems, …); assay: ELISA; lower left panel
[10] = molecular target: T1, human PD-1-Fc (R and D systems, …); assay: ELISA; upper right panel
[11] = molecular target: T1, human PD-1-Fc (R and D systems, …); assay: ELISA; upper left panel

Sequence of human PD-1-His (R & D systems, Minneapolis, Minn.) (Q15116 25-167): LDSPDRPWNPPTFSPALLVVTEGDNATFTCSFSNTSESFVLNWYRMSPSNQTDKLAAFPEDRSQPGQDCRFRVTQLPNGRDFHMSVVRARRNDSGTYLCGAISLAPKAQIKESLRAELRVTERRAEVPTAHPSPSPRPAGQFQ
T1 sequence (Q15116 25-167): as above

B1: D4 (antibody, V domains shown)
VH: EVQLVESGGGLVQPGGSLRLSCAHSGFSFSSYDMSWVRQAPGKGLEWVATISGGGRYTYYADSVKGRFTISRDNSKNTLYLQMNSLRAEDTAVYYCASNYYGFDYWGQGTLLTVSS
VL: DIQMTQSPSSLSASVGDRVTITCKASQDVGTAVAWYQQKPGKAPKLLIYWASTRHTGVPSRFSGSGSGTDFTLTISSVQPEDFATYYCQQYSSYPWTFGQGTKLEIKR
- IC50 [1]: 1.95 nM
- Kd [2]: 5.52 nM
- IC50 [3]: 2.72 nM

B2: C1.1 (antibody, V domains shown)
VH: EVQLVESGGGLVQPGGSLRLSCAASGFTFSNYAMSWVRQAPGKGLEWVAYISNGGGDTHYADSLKGRFTVSRDNSKNTLYLQMNSLRAEDTAVYYCARENYGTSPFVYWGQGTLVTVSS
VL: DIQLTQSPSSLSVSVGDRATITCRASESVDNYGISFMNWFQQKPGKAPKLLIYAASNQGSGVPSRFSGSGSGTDFTLTISSMQPEDFATYYCQQSKDVPWTFGQGTKLEIKR
- IC50 [1]: 1.2 nM
- IC50 [4]: 3.73 nM
- Kd [2]: 12.4 nM
- IC50 [3]: 1.32 nM
- IC50 [5]: 3.07 nM

B3: A1.4 (antibody, V domains shown)
VH: EVQLVESGGGLVQPGGSLRLSCAASGFTFSGYAMSWVRQAPGKGLEWVAYISNSGGNAHYADSVKGRFTISRDNSKNTLYLQMNSLRAEDTAVYYCTREDYGTSPFVYWGQGTLVTVSS
VL: DIQLTQSPSSLSASVGDRVTITCRASESVDSYGISFMNWFQQKPGKAPKLLIYAASNQGSGVPSRFSGSGSGTDFTLTISSMQPEDFATYYCQQSKDVPWTFGQGTKLEIKR
- IC50 [6]: 1.29 nM
- IC50 [7]: 1.92 nM

B4: A1.2 (antibody, V domains shown)
VH: EVQLVESGGGLVQPGGSLRLSCAASGFTFSGYAMSWVRQAPGKGLEWVAYISNSGGNAHYADSVKGRFTISRDNSKNTLYLQMNSLRAEDTAVYYCTREDYGTSPFVYWGQGTLVTVSS
VL: DIQLTQSPSSLSASVGDRVTITCRASESVDQYGISFMNWFQQKPGKAPKLLIYAASNQGSGVPSRFSGSGSGTDFTLTISSMQPEDFATYYCQQSKDVPWTFGQGTKLEIKR
- IC50 [6]: 1.01 nM
- IC50 [7]: 1.55 nM

B5: A1.0 (antibody, V domains shown)
VH: EVQLVESGGGLVQPGGSLRLSCAASGFTFSGYAMSWVRQAPGKGLEWVAYISNSGGNAHYADSVKGRFTISRDNSKNTLYLQMNSLRAEDTAVYYCTREDYGTSPFVYWGQGTLVTVSS
VL: DIQLTQSPSSLSASVGDRVTITCRASESVDNYGISFMNWFQQKPGKAPKLLIYAASNQGSGVPSRFSGSGSGTDFTLTISSMQPEDFATYYCQQSKDVPWTFGQGTKLEIKR
- IC50 [6]: 1.04 nM
- IC50 [7]: 1.85 nM

B6: PD-1 1.5 PD026 2001 (antibody)
heavy: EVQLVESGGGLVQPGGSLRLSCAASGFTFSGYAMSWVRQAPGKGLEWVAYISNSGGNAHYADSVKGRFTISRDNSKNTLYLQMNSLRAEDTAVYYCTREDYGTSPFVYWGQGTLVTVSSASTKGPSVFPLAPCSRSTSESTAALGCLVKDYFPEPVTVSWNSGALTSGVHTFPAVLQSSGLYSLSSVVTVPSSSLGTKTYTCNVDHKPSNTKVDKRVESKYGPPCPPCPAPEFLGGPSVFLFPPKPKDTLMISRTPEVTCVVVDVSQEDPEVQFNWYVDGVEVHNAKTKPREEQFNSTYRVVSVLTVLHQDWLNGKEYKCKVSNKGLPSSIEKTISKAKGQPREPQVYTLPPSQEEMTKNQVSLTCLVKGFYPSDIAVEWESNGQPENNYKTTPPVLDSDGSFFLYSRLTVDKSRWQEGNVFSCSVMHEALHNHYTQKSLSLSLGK
light: QGQSGQGGMCSAYAYSSKLCTIGGGSSGGSISSGLLSGRSDNHGGGSDIQLTQSPSSLSASVGDRVTITCRASESVDAYGISFMNWFQQKPGKAPKLLIYAASNQGSGVPSRFSGSGSGTDFTLTISSMQPEDFATYYCQQSKDVPWTFGQGTKLEIKRTVAAPSVFIFPPSDEQLKSGTASVVCLLNNFYPREAKVQWKVDNALQSGNSQESVTEQDSKDSTYSLSSTLTLSKADYEKHKVYACEVTHQGLSSPVTKSFNRGEC
- Kd [8]: 3.75 nM

B7: PD-1 1.5 PD025 2001 (antibody)
heavy: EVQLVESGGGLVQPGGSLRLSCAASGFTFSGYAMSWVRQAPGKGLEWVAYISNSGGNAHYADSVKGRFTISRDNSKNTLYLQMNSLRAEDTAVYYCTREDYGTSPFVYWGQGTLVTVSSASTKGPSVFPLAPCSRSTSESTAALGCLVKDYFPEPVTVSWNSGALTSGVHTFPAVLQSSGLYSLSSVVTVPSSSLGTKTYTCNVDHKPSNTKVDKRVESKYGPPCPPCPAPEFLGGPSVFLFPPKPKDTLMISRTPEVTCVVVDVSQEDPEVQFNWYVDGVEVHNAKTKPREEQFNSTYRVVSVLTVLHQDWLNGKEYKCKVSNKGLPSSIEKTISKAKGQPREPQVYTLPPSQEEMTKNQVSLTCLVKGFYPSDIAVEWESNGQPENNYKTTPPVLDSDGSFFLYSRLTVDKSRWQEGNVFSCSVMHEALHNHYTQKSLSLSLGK
light: QGQSGQGSRCSVYEVSSGLCDWGGGSSGGSISSGLLSGRSDNHGGGSDIQLTQSPSSLSASVGDRVTITCRASESVDAYGISFMNWFQQKPGKAPKLLIYAASNQGSGVPSRFSGSGSGTDFTLTISSMQPEDFATYYCQQSKDVPWTFGQGTKLEIKRTVAAPSVFIFPPSDEQLKSGTASVVCLLNNFYPREAKVQWKVDNALQSGNSQESVTEQDSKDSTYSLSSTLTLSKADYEKHKVYACEVTHQGLSSPVTKSFNRGEC
- Kd [9]: 5.22 nM

B8: PD-1 1.5 PD017 2001 (antibody)
heavy: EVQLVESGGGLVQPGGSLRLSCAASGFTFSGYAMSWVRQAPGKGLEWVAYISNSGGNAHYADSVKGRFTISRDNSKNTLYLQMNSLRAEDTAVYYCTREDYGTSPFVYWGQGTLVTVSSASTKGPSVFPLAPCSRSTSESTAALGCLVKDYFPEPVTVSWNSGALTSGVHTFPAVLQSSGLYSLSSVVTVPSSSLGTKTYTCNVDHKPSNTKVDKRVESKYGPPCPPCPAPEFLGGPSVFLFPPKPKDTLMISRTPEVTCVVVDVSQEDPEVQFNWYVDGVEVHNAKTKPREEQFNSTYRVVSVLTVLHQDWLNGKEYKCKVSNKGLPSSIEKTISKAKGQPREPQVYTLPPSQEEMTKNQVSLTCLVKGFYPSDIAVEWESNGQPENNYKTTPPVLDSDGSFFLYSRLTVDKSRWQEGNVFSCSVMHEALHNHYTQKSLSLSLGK
light: QGQSGQGTTCNLYQQSSMFCNAGGGSSGGSISSGLLSGRSDNHGGGSDIQLTQSPSSLSASVGDRVTITCRASESVDAYGISFMNWFQQKPGKAPKLLIYAASNQGSGVPSRFSGSGSGTDFTLTISSMQPEDFATYYCQQSKDVPWTFGQGTKLEIKRTVAAPSVFIFPPSDEQLKSGTASVVCLLNNFYPREAKVQWKVDNALQSGNSQESVTEQDSKDSTYSLSSTLTLSKADYEKHKVYACEVTHQGLSSPVTKSFNRGEC
- Kd [10]: 4.36 nM

B9: PD-1 1.5 PD009 2001 (antibody)
heavy: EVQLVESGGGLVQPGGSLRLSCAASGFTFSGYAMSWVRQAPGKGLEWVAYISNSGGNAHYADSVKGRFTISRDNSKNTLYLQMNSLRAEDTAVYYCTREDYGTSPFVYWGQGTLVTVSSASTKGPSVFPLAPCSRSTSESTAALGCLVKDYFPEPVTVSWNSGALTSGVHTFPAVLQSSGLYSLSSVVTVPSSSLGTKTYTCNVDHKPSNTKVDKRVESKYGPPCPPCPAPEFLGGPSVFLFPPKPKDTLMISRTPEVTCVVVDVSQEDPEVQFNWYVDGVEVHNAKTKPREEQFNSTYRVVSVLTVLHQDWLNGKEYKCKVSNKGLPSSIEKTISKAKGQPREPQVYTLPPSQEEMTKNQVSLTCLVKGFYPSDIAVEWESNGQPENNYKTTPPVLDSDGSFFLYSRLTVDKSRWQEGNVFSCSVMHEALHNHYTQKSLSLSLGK
light: QGQSGQGAPRTCYTYQCSSFYTGGGSSGGSISSGLLSGRSDNHGGGSDIQLTQSPSSLSASVGDRVTITCRASESVDAYGISFMNWFQQKPGKAPKLLIYAASNQGSGVPSRFSGSGSGTDFTLTISSMQPEDFATYYCQQSKDVPWTFGQGTKLEIKRTVAAPSVFIFPPSDEQLKSGTASVVCLLNNFYPREAKVQWKVDNALQSGNSQESVTEQDSKDSTYSLSSTLTLSKADYEKHKVYACEVTHQGLSSPVTKSFNRGEC
- Kd [11]: 0.399 nM

B10: PD-1 1.5 PD006 2001 (antibody)
heavy: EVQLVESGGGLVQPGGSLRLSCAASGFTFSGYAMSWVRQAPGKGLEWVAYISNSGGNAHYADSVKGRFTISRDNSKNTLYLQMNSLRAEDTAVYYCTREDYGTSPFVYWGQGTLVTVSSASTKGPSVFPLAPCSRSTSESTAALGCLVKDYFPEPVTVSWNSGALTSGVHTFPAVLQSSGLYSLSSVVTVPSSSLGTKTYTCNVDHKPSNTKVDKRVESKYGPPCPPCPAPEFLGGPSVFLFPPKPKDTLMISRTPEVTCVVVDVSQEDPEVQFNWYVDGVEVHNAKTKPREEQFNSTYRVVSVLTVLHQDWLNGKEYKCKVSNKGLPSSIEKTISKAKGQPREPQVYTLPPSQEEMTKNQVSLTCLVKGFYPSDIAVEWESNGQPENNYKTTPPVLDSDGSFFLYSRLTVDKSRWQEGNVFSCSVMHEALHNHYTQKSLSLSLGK
light: QGQSGQGAPRCYMFASYCKSQYGGGSSGGSISSGLLSGRSDNHGGGSDIQLTQSPSSLSASVGDRVTITCRASESVDAYGISFMNWFQQKPGKAPKLLIYAASNQGSGVPSRFSGSGSGTDFTLTISSMQPEDFATYYCQQSKDVPWTFGQGTKLEIKRTVAAPSVFIFPPSDEQLKSGTASVVCLLNNFYPREAKVQWKVDNALQSGNSQESVTEQDSKDSTYSLSSTLTLSKADYEKHKVYACEVTHQGLSSPVTKSFNRGEC
- Kd [11]: 5.66 nM

B11: PD-1 1.5 PD028 2001 (antibody)
heavy: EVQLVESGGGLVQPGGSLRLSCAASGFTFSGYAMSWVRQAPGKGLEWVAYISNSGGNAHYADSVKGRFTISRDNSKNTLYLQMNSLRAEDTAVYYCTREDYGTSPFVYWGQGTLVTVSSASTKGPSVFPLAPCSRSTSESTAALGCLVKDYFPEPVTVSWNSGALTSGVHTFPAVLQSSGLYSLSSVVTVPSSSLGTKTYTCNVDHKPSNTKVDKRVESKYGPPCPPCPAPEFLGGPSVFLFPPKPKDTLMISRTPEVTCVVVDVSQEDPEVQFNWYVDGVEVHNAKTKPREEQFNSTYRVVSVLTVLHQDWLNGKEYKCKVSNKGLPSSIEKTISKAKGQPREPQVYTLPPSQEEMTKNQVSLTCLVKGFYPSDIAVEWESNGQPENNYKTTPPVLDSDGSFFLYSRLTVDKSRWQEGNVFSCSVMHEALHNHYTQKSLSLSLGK
light: QGQSGQGFQPCLMFASSCFTSKGGGSSGGSISSGLLSGRSDNHGGGSDIQLTQSPSSLSASVGDRVTITCRASESVDAYGISFMNWFQQKPGKAPKLLIYAASNQGSGVPSRFSGSGSGTDFTLTISSMQPEDFATYYCQQSKDVPWTFGQGTKLEIKRTVAAPSVFIFPPSDEQLKSGTASVVCLLNNFYPREAKVQWKVDNALQSGNSQESVTEQDSKDSTYSLSSTLTLSKADYEKHKVYACEVTHQGLSSPVTKSFNRGEC
- Kd [8]: 4.97 nM

B12: A1.5 PD34 2001 (antibody)
heavy: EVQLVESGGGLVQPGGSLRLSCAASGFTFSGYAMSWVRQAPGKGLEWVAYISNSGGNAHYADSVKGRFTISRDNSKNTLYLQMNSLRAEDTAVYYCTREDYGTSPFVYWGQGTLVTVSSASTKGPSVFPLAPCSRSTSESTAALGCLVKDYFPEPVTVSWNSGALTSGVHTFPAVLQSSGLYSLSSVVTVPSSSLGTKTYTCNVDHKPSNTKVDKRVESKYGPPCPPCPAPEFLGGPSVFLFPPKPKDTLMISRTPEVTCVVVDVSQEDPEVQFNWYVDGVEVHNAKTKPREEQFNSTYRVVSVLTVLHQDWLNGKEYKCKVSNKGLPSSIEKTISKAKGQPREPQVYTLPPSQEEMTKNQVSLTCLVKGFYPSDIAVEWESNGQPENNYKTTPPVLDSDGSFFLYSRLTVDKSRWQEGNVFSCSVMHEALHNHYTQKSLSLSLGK
light: QGQSGQGTSYCSIEHYPCNTHHGGGSSGGSISSGLLSGRSDNHGGGSDIQLTQSPSSLSASVGDRVTITCRASESVDAYGISFMNWFQQKPGKAPKLLIYAASNQGSGVPSRFSGSGSGTDFTLTISSMQPEDFATYYCQQSKDVPWTFGQGTKLEIKRTVAAPSVFIFPPSDEQLKSGTASVVCLLNNFYPREAKVQWKVDNALQSGNSQESVTEQDSKDSTYSLSSTLTLSKADYEKHKVYACEVTHQGLSSPVTKSFNRGEC
- Kd [11]: 9.37 nM
- Kd [10]: 7.3 nM
- Kd [8]: 8.12 nM
- Kd [9]: 8.4 nM

B13: PD-1 1.5 PD012 2001 (antibody)
heavy: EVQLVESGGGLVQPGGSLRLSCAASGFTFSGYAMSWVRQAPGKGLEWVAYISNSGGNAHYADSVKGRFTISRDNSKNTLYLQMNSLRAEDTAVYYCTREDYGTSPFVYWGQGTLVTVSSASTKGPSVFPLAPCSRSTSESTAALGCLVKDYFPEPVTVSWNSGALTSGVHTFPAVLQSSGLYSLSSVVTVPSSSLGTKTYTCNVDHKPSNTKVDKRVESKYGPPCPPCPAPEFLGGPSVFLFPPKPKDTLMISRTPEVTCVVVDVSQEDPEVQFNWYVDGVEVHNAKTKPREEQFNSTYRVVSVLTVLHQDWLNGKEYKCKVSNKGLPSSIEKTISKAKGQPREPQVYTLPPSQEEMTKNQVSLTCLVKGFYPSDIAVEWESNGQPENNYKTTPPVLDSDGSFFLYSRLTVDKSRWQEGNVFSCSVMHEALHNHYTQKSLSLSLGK
light: QGQSGQGNWLDCQFYSECSVYGGGGSSGGSISSGLLSGRSDNHGGGSDIQLTQSPSSLSASVGDRVTITCRASESVDAYGISFMNWFQQKPGKAPKLLIYAASNQGSGVPSRFSGSGSGTDFTLTISSMQPEDFATYYCQQSKDVPWTFGQGTKLEIKRTVAAPSVFIFPPSDEQLKSGTASVVCLLNNFYPREAKVQWKVDNALQSGNSQESVTEQDSKDSTYSLSSTLTLSKADYEKHKVYACEVTHQGLSSPVTKSFNRGEC
- Kd [10]: 1.74 nM

B14: PD-1 1.5 PD019 2001 (antibody)
heavy: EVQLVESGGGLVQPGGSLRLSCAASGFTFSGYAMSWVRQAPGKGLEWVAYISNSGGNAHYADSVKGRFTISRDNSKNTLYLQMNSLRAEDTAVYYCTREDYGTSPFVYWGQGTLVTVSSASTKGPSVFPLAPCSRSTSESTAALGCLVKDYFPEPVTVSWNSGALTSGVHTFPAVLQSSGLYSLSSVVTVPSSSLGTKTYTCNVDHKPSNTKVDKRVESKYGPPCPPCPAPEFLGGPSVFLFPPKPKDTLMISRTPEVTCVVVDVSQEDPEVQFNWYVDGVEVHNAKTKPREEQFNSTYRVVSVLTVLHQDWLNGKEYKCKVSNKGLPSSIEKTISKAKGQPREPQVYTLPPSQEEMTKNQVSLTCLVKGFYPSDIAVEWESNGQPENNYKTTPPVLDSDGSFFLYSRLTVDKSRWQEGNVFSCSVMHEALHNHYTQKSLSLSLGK
light: QGQSGQGPCDQNPYFYPYVCHAGGGSSGGSISSGLLSGRSDNHGGGSDIQLTQSPSSLSASVGDRVTITCRASESVDAYGISFMNWFQQKPGKAPKLLIYAASNQGSGVPSRFSGSGSGTDFTLTISSMQPEDFATYYCQQSKDVPWTFGQGTKLEIKRTVAAPSVFIFPPSDEQLKSGTASVVCLLNNFYPREAKVQWKVDNALQSGNSQESVTEQDSKDSTYSLSSTLTLSKADYEKHKVYACEVTHQGLSSPVTKSFNRGEC
- Kd [9]: 5.45 nM

B15: Bb2 (antibody, V domains shown)
VH: QVQLVQSGAEVKKPGASVKMSCKASGYTFTDYYMDWVRQAPGQGLEWIGYIYPKNGGSSYAQKFQGRATLTVDKSTSTAYMELSSLRSEDTAVYYCARKVVATDYWGQGTLLTVSS
VL: DIQMTQSPSSLSASVGDRVTMTCKSSQSLLYSSNQKNYLAWYQQKPGKAPKLLIFWASIRESGVPSRFSGSGSGTDFTLTISSVQPEDFATYYCQQSDSYPWTFGQGTKLEIKR
- IC50 [1]: 1.83 nM
- Kd [2]: 5.04 nM
- IC50 [3]: 1.67 nM

B16: Ba2 (antibody, V domains shown)
VH: QVQLVQSGAEVKKPGASVKMSCKASGYTFTDYYMDWVRQAPGQGLEWIGYIYPKNGGSSYAQKFQGRATLTVDTSTSTAYMELSSLRSEDTAVYYCARKVVATDYWGQGTLLTVSS
VL: DIQMTQSPSSLSASVGDRVTMTCKSSQSLLYSSNQKNYLAWYQQKPGKAPKLLIFWASIRESGVPSRFSGSGSGTDFTLTISSVQPEDFATYYCQQSDSYPWTFGQGTKLEIKR
- IC50 [1]: 1.2 nM
- IC50 [3]: 2.2 nM
